This assay has as its target T1, MBP-COP1 (Arabidopsis thaliana, UniProt P43254 1-675).
T1 sequence (looked up): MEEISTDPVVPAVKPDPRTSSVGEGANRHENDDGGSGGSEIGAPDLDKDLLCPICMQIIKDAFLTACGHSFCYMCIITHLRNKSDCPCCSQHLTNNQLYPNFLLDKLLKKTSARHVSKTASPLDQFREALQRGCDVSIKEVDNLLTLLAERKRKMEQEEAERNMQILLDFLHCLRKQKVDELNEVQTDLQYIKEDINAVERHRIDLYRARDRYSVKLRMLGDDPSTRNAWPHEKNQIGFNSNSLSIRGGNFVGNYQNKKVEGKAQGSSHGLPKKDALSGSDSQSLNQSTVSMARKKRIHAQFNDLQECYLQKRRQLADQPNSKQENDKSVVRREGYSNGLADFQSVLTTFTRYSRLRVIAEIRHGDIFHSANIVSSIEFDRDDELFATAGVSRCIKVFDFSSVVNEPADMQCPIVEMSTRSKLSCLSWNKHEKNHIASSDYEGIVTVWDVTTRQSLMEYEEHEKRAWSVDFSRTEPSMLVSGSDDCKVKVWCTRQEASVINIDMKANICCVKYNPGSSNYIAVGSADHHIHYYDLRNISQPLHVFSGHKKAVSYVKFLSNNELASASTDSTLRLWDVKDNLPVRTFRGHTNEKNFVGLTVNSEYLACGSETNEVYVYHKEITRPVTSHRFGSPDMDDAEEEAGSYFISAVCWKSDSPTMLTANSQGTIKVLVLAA
In words: pull-down.

B1: GST-HEC2 (natural protein, Arabidopsis thaliana, UniProt Q9SND4 1-231, looked up)
chain: MDNSDILMNMMMQQMEKLPEHFSNSNPNPNPHNIMMLSESNTHPFFFNPTHSHLPFDQTMPHHQPGLNFRYAPSPSSSLPEKRGGCSDNANMAAMREMIFRIAVMQPIHIDPESVKPPKRKNVRISKDPQSVAARHRRERISERIRILQRLVPGGTKMDTASMLDEAIHYVKFLKKQVQSLEEHAVVNGGGMTAVAGGALAGTVGGGYGGKGCGIMRSDHHQMLGNAQILR
Regarding B1, the binding result is on record as “binds”.

The record behind these values is article PMC7959245 (The Plant journal : for cell and molecular biology, 2020).
